Test results: patent publication US20090136527A1
Non-standard residues stand in square brackets, D forms with d. pGlu = O=C1CC[C@@H](C(=O)O)N1

T1: human GnRH receptor (human) (UniProt P30968)
T1 sequence (looked up): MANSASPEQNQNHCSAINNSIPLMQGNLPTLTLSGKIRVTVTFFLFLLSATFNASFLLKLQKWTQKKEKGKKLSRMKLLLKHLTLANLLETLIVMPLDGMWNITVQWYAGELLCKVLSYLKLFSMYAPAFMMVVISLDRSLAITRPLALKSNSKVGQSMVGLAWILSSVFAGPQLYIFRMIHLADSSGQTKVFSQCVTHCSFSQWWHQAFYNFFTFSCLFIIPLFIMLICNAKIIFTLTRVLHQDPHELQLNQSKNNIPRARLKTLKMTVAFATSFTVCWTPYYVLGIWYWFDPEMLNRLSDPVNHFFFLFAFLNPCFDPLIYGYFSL


Experiments:
[1] = target: T1, human GnRH receptor (human); test: cell-based or functional assay
[2] = target: affinity purified rabbit anti-RI-GnRH antibody fraction eluted with potassium thiocyanate, first fraction (KSCN 1); test: inhibition ELISA: antibody fraction preincubated with free peptide, binding to coated RI-GnRH

half-maximal effective concentration (EC50) of IP production [1] [nM]	IC50 (read off the curve) [2] [nM]	Binder
1		[pGlu]HWSHGWYPG-NH2 (SMILES NC(=O)CNC(=O)[C@@H]1CCCN1C(=O)[C@H](Cc1ccc(O)cc1)NC(=O)[C@H](Cc1c[nH]c2ccccc12)NC(=O)CNC(=O)[C@H](Cc1c[nH]cn1)NC(=O)[C@H](CO)NC(=O)[C@H](Cc1c[nH]c2ccccc12)NC(=O)[C@H](Cc1c[nH]cn1)NC(=O)[C@@H]1CCC(=O)N1) [GnRH II ([His5, Trp7, Tyr8]GnRH)]
1	100	EHWSYGLQPG (pGlu (pyroglutamate) at position 1; C-terminal amide) [chicken GnRH I ([Gln8]GnRH)]
